Laboratory results from patent publication US20240360242A1 (KISOJI BIOTECHNOLOGY, published 2024).
Changes are numbered by the printed parent chain.

T1: recombinant human TROP2 extracellular domain (aa 1-274) comprising His tag (human, UniProt P09758 27-274)
T1 construct: Used here for all assays on recombinant human TROP2 (ELISA, immunoblot, SPR, crystal), although only some of them name the catalogue number; also called human recombinant TROP2; recombinant human TROP2 protein; not shown: His tag
T1 sequence: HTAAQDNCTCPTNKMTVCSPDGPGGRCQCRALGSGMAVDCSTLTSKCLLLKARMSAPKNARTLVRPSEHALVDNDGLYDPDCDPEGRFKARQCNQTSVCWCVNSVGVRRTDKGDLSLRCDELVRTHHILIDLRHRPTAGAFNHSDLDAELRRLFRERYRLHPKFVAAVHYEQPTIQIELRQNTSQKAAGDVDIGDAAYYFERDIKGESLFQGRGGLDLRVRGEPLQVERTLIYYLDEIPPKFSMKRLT

T2: recombinant cynomolgus/Rhesus TROP2 full-length extracellular domain (cynomolgus/Rhesus, UniProt P09758 27-274 (human entry))
T2 construct: also called cynomolgus TROP2
T2 chain: T1 sequence with M36V, S67N, I204V

T3: human TROP2 on cells (human, UniProt P09758 27-323)
T3 construct: Full human TROP2, either transiently transfected into HEK or CHO cells or endogenous on cancer cell lines; also called HEK-TROP2; CHO-TROP2
T3 sequence: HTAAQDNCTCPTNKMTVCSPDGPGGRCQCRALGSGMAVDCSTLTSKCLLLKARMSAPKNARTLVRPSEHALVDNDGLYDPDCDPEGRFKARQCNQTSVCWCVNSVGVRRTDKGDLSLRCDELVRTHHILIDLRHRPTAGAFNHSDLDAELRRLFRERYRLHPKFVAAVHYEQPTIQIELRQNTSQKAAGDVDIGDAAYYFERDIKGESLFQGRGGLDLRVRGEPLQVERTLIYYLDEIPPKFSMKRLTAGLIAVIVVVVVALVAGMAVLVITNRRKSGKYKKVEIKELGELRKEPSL

B1: KD005 (antibody, human IgG1, V domains shown)
VH: QVQLQESGGGLVEAGGSLRLSCAASGFTFSGSDMSWVRQAPGKGPEWVSYITSGGTTYYPDSVKGRFTISRDNAKNTLYLQMNSLKPDDTALYRCAKSRLTDSHYVEDAWGQGTQVTVSS
notes: also called anti-TROP2 sdAb KD005
B2: KD002 (antibody, human IgG1, V domains shown)
VH: QVQLQESGGGMVQVGGSLRLSCAASGFPFSSADMSWVRQAPGKGPEWVSYINADGSKTYYPDSVKGRFTISRDNAKNTLYLLMNNLKPEDTALYRCARAKLTDTHYVEDYWGQGTQVTVSS
notes: also called anti-TROP2 sdAb KD002
B3: KD001 (antibody, human IgG1, V domains shown)
VH: B1 VH with L11M, E13H, A14P, K86T, S98A
notes: also called anti-TROP2 sdAb KD001
B4: KD004 (antibody, human IgG1, V domains shown)
VH: B1 VH with E13Q, A14P, G16R, S53G, G54S, I69T, T77M, S98A
notes: also called anti-TROP2 sdAb KD004
B5: KD003 (antibody, human IgG1, V domains shown)
VH: B2 VH with V14P, P28T, S31N, A32Y, D54G, K57N, Y59D, T78M
notes: also called anti-TROP2 sdAb KD003
B6: KD007 (antibody, human IgG1, V domains shown)
VH: QVQLQESGGGLVQPGGSLRLSCAASGFAFSFYAMAWYRQAPGKQRDMVATITAYGNTNYADSVKGRFTTSRDNAKNTVYLQMNSLKPEDTAVYVCNANLPSASHNYWGQGTQVTVSS
notes: also called anti-TROP2 sdAb KD007

Each binder was assayed against T1, recombinant human TROP2 extracellular … (assay: ELISA, coated rh TROP2).
Description: (§1) Human TROP2 recombinant proteins were coated on 96-well ELISA plates at the concentration of 1 μg/mL. Plates were covered with adhesive plate cover and stored at 4° C. overnight. The next day, plates were washed 3× with washing buffer (PBS with 0.1% Tween™ 20). Plates were blocked with 2% fat-free BSA in washing buffer for 1 hour at 37° C. During the incubation time, the TROP2 reference antibodies, as well as the humanized variants, were diluted in the blocking buffer to the indicated concentrations. […] After blocking, the blocking buffer was removed from the wells and 100 μL of anti-TROP2 sdAbs dilutions were transferred to the corresponding wells. Plates were covered with adhesive plates cover and incubated at 37° C. for 1 hour. During the primary antibody incubation, the secondary antibody (goat anti-human IgG, HRP conjugated) was diluted 1 in 5000 with the blocking buffer. Plates were washed 3× with blocking buffer, followed by secondary antibody incubation for another 1 hour at 37° C. After the secondary antibody incubation, plates were washed 3× with washing buffer and added with 100 μL of ELISA chemiluminescent substrate (Thermofisher). The luminescence signal was detected by SpectraMax i3x at […].

Binder	EC50	EC50% to KD005
B1	0.08 nM	1 ratio to KD005
B2	0.055 nM	0.688 ratio to KD005

Molecular target: T1, recombinant human TROP2 extracellular …
Assay: ELISA, coated rh TROP2
Remark: another data set of the same source
Description: as §1

Binder	EC50
B2	0.07 nM

The binders below were run against T1, recombinant human TROP2 extracellular … (assay: ELISA on coated recombinant TROP2 ECD, 1:5 dilutions from 1000 nM, RLU).
Description: (§2) TROP2 full-length extracellular domain recombinant proteins including cynomolgus/Rhesus (FIG. 12A), human (FIG. 12B), mouse (FIG. 12C), and rat (FIG. 12D) were coated on 96-well ELISA plates at the concentration of 1 μg/mL. Plates were covered with adhesive plate cover and stored at 4° C. overnight. The next day, plates were washed 3× with washing buffer (PBS with 0.1% Tween™ 20). Plates were blocked with 2% fat-free BSA in washing buffer for 1 hour at 37° C. During the incubation time, the anti-TROP2 sdAbs were diluted in the blocking buffer to the indicated concentrations. In brief, the anti-TROP2 sdAbs starting concentration was 1000 nM and serial diluted 1 in 5 to 0.02048 pM. After blocking, the blocking buffer was removed from the wells and 100 μL of anti-TROP2 sdAbs dilutions were transferred to the corresponding wells. Plates were covered with adhesive plates cover and incubated at 37° C. for 1 hour. During the primary antibody incubation, the secondary antibody (goat anti-human IgG, HRP conjugated) was diluted 1 in 5000 with the blocking buffer. Plates were washed 3× with blocking buffer, followed by secondary antibody incubation for another 1 hour at 37° C. After the secondary antibody incubation, plates were washed 3× with washing buffer and added with 100 μL of ELISA chemiluminescent substrate (Thermofisher). The luminescence signal was detected by SpectraMax i3x at […].

Binder	EC50 (read off the curve)
B3	~0.2 nM
B1	~0.2 nM
B4	~0.2 nM
B2	~0.2 nM
B5	~0.2 nM

Molecular target: T2, recombinant cynomolgus/Rhesus TROP2 …
Assay: as above
Description: as §2

Binder	EC50 (read off the curve)
B3	~0.2 nM
B1	~0.2 nM
B4	~0.2 nM
B2	~0.2 nM
B5	~0.2 nM

Each binder was assayed against T1, recombinant human TROP2 extracellular … (assay: SPR).

Binder	Kd
B3	0.0826 nM
B1	0.0268 nM
B4	0.0294 nM
B2	0.0432 nM
B5	0.0893 nM

Molecular target: T2, recombinant cynomolgus/Rhesus TROP2 …
Assay: SPR

Binder	Kd
B3	0.0257 nM
B1	0.0597 nM
B4	0.0358 nM
B2	0.0811 nM
B5	0.169 nM

Each binder was assayed against T3, human TROP2 on cells (assay: flow cytometry, 100 nM antibody, transiently transfected HEK cells, APC anti-human Fc).
Procedure, shortened: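 HEK parental cells transiently transfected (lipofectamine) with human TROP2 truncation mutants, harvested 24 h later and Fc-blocked 10 min at RT. Anti-TROP2 sdAbs at 100 nM bound 30 min on ice, then detected with APC anti-human Fc (30 min) and 7-AAD added for viability.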

Binder	binding result
B6	binds
